Reference: patent US20100081126, “PROCESS FOR DESIGNING INHIBITORS OF INFLUENZA VIRUS STRUCTURAL PROTEIN-1” (RUTGERS, THE STATE UNIVERSITY OF NEW JERSEY, published 2010)

Target: NS1A(1-73), NS1 protein N-terminal dsRNA-binding domain (Influenza A virus (A/Udorn/72)?, UniProt B4URE2 SEQ:1-73)
Sequence (B4URE2 1-73): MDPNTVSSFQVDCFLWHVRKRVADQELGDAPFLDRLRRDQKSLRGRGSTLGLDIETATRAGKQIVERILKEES

B1: 16-bp dsRNA (RR) (dsRNA)
RNA 1: CCAUCCUCUACAGGCG
RNA 2: CGCCUGUAGAGGAUGG
Kd: 748 nM
